From patent US20130288305A1 (AVEO PHARMACEUTICALS, published 2013)

Tests used:
[1] = biological target: T1, recombinant human FGFR2 beta (IIIb)/Fc Chimera (human, UniProt P21802-3 152-378); assay: SPR (Biacore T100), antibody captured on anti-mouse IgG, FGFR protein as analyte, 25 C
T1 construct: Bought from R&D Systems; the IIIb isoform applies; also called rhFGFR2β-IIIb-Fc; human FGFR2-IIIb; Fc part of the bought chimera not given
Experimental: (§1) Rabbit anti-mouse IgGs (GE Healthcare) were immobilized on carboxymethylated dextran CM4 sensor chips (GE Healthcare) by amine coupling, using a standard coupling protocol, according to the vendor's instructions (GE Healthcare). The analyses were performed at 25° C. and 37° C., using PBS containing 0.05% surfactant P20 (GE Healthcare) as running buffer.
(§2) The antibodies were captured in individual flow cells at a flow rate of 10 μl/min. Injection time was varied for each antibody to yield an Rmax between 30 and 60 RU. […] The dissociation phase was monitored for up to 900 seconds. The surface was then regenerated with two 60-second injections of 10 mM Glycine-HCl (pH 1.7), at a flow rate of 60 μl/minute. The FGFR protein concentration range tested was 50 to 3.125 nM (two-fold dilutions).
(§3) Kinetic parameters were determined using the kinetic function of the BlAevalutation software (GE Healthcare) with double reference subtraction. Kinetic parameters for each antibody, kₐ (association rate constant), kd (dissociation rate constant) and KD (equilibrium dissociation constant) were determined.

[2] = biological target: T2, recombinant human FGFR2 beta (IIIb)/Fc in which the Fc region was removed enzymatically (human, UniProt P21802-3 152-378, limits assumed); assay: as above
T2 construct: also called rhFGFR2β-IIIb-cleaved; monomeric recombinant human FGFR2 beta IIIb
Experimental: as §1, §2, §3

[3] = biological target: T3, recombinant human FGFR1 beta (IIIb)/Fc Chimera (human, UniProt P11362-19 120-376); assay: as above
T3 construct: Treated as one reagent; also called rhFGFR1β-IIIc-Fc; rhFGFR1β-IIIb-Fc; Fc part of the bought chimera not given
T3 sequence (looked up): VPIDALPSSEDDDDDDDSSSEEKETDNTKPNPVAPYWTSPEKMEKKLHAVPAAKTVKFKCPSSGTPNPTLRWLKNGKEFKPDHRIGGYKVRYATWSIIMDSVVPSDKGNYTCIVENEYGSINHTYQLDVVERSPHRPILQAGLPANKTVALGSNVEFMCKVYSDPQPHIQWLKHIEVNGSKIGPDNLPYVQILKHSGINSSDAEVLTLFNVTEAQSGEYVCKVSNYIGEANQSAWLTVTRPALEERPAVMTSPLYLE
Experimental: as §1, §2, §3

[4] = biological target: T1, recombinant human FGFR2 beta (IIIb)/Fc …; assay: SPR (Biacore T100), antibody captured on anti-mouse IgG, FGFR protein as analyte, 37 C
Experimental: as §1, §2, §3

[5] = biological target: T2, recombinant human FGFR2 beta (IIIb)/Fc …; assay: as above
Experimental: as §1, §2, §3

[6] = biological target: T2, recombinant human FGFR2 beta (IIIb)/Fc …; assay: SPR (Biacore T100), antibody captured on anti-human IgG Fc, rhFGFR2β-IIIb-cleaved as analyte, 25 C
Experimental: (§4) Goat anti-human IgG Fc (Jackson ImmunoResearch, Catalog No. 109-005-098) was immobilized on carboxymethylated dextran CM4 sensor chips (Biacore) by amine coupling (Biacore) using a standard coupling protocol according to the vendor's instructions. The analyses were performed at 25° C. and 37° C. using PBS (Invitrogen) containing 0.05% surfactant P20 (Biacore) as running buffer.
(§5) Purified antibodies were captured in individual flow cells at a flow rate of 10 μl/minute. Injection time was varied for each antibody to yield an Rₘₐₓ between 30 and 90 RU. […] The dissociation phase was monitored for up to 900 seconds. The surface was then regenerated with two 60 second injections of glycine pH 2.25 (made from glycine pH 2.0 (Biacore) and pH 2.5 (Biacore)) at 30 μl/minute. Experiments were conducted using concentrations of rhFGFR2β-IIIb-cleaved between 20 and 1.25 nM (a two-fold serial dilution).
Kinetic parameters were determined using the kinetic function of the BlAevaluation software (Biacore) with double reference subtraction. Kinetic parameters for each antibody, kₐ (association rate constant), kd (dissociation rate constant) and KD (equilibrium dissociation constant) were determined.

[7] = biological target: T2, recombinant human FGFR2 beta (IIIb)/Fc …; assay: SPR (Biacore T100), antibody captured on anti-human IgG Fc, rhFGFR2β-IIIb-cleaved as analyte, 37 C
Experimental: as §4, §5

T1 sequence (P21802 other isoform, or with tags, fused parts or gaps mutant): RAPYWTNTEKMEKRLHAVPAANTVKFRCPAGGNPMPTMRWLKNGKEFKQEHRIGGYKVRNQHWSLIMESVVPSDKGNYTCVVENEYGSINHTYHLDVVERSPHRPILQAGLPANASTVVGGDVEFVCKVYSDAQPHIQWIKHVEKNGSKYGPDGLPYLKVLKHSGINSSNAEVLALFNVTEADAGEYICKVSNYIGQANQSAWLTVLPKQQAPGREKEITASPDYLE
T2 sequence (P21802 other isoform, or with tags, fused parts or gaps limits assumed): as the sequence (P21802 other isoform, or with tags, fused parts or gaps mutant) above

B1: antibody 4B9 (antibody)
heavy: EVQLQQSGTVLARPGASVKMSCKTSGYTFTSYWMHWVKQRPGQGLEWIGAIYPGNSDTDYSQKFKGKATLTAVTSATTAYMELSSLTNEDSAVYYCSKFDYWGQGTTLTVSSAKTTPPSVYPLAPGSAAQTNSMVTLGCLVKGYFPEPVTVTWNSGSLSSGVHTFPAVLQSDLYTLSSSVTVPSSTWPSQTVTCNVAHPASSTKVDKKIVPRDCGCKPCICTVPEVSSVFIFPPKPKDVLTITLTPKVTCVVVDISKDDPEVQFSWFVDDVEVHTAQTQPREEQFNSTFRSVSELPIMHQDWLNGKEFKCRVNSAAFPAPIEKTISKTKGRPKAPQVYTIPPPKEQMAKDKVSLTCMITDFFPEDITVEWQWNGQPAENYKNTQPIMDTDGSYFVYSKLNVQKSNWEAGNTFTCSVLHEGLHNHHTEKSLSHSPGK
light: QIVLTQSPALMSASPGEKVTMTCSASSSVNYMYWYQQKPRSSPKPWIYLTSNLASGVPARFSGRGSGTSYSLTISSMEAEDAATYYCQQWSSNPYTFGGGTKLEIKRADAAPTVSIFPPSSEQLTSGGASVVCFLNNFYPRDINVKWKIDGSERQNGVLNSWTDQDSKDSTYSMSSTLTLTKDEYERHNSYTCEATHKTSTSPIVKSFNRNEC
notes: Murine IgG1 kappa from hybridoma clone 4B9; also called GP369; monoclonal antibody 4B9
For B1, the Kd [1] was 0.61 nM, the koff [1] was 4.6e-05 s⁻¹ and the kon [1] was 94000 M⁻¹ s⁻¹. For the same binder, the Kd [2] was 4.2 nM, the binding result [3] was “no binding (tested: 50 to 3.125 nM tested)” and the Kd [4] was 2.96 nM. For the same binder, the Kd [5] was 1.2 nM, the koff [5] was 0.000223 s⁻¹ and the kon [5] was 254000 M⁻¹ s⁻¹.

B2: Hu4B9-82 (antibody)
heavy: not shown
light: EIVLTQSPATLSLSPGERATLSCRASSSVNYMYWYQQKPGQAPRPWIYLTSNRATGIPARFSGSGSGTDYTLTISSLEPEDFAVYYCQQWSSNPYTFGQGTKLEIKRTVAAPSVFIFPPSDEQLKSGTASVVCLLNNFYPREAKVQWKVDNALQSGNSQESVTEQDSKDSTYSLSSTLTLSKADYEKHKVYACEVTHQGLSSPVTKSFNRGEC
notes: Humanized IgG1 kappa
B2 showed a Kd [6] of 0.49 nM, a koff [6] of 9.4e-05 s⁻¹ and a kon [6] of 190000 M⁻¹ s⁻¹. For the same binder, the Kd [7] was 0.93 nM, the koff [7] was 0.00036 s⁻¹ and the kon [7] was 400000 M⁻¹ s⁻¹.

B3: Hu4B9-65 (antibody)
heavy: not shown
light: EIVLTQSPATLSLSPGERATLSCRASSSVNYMYWYQQKPGQAPRPWIYLTSNRATGVPARFSGSGSGTDYTLTISSLEPEDFAVYYCQQWSSNPYTFGQGTKLEIKRTVAAPSVFIFPPSDEQLKSGTASVVCLLNNFYPREAKVQWKVDNALQSGNSQESVTEQDSKDSTYSLSSTLTLSKADYEKHKVYACEVTHQGLSSPVTKSFNRGEC
notes: Humanized IgG1 kappa
Binder B3 has a Kd [6] of 0.26 nM, a koff [6] of 6.5e-05 s⁻¹ and a kon [6] of 240000 M⁻¹ s⁻¹. It also gave a Kd [7] of 0.89 nM, a koff [7] of 0.00028 s⁻¹ and a kon [7] of 370000 M⁻¹ s⁻¹.

B4: Hu4B9-83 (antibody)
heavy: not shown
light: EIVLTQSPATLSLSPGERATLSCRASSSVNYMYWYQQKPGQAPRPWIYLTSNRATGIPARFSGSGSGTDFTLTISSLEPEDFAVYYCQQWSSNPYTFGQGTKLEIKRTVAAPSVFIFPPSDEQLKSGTASVVCLLNNFYPREAKVQWKVDNALQSGNSQESVTEQDSKDSTYSLSSTLTLSKADYEKHKVYACEVTHQGLSSPVTKSFNRGEC
notes: Humanized IgG1 kappa
B4 showed a Kd [6] of 0.35 nM, a koff [6] of 8.9e-05 s⁻¹ and a kon [6] of 260000 M⁻¹ s⁻¹. The Kd [7] was 0.92 nM, the koff [7] was 0.00029 s⁻¹ and the kon [7] was 320000 M⁻¹ s⁻¹.
